Patent US20100076062

What was measured:
[1] = biological target: HA-tagged human eIF5A1D6E/K50R, in vitro translated from pHM6-HA-A1(D6E/K50R)
[2] = biological target: HA-tagged human eIF5A1D6E, in vitro translated from pHM6-HA-A1(D6E)
[3] = biological target: HA-tagged human eIF5A1 (wild type), in vitro translated from pHM6-HA-A1

B1: recombinant caspase 8 (Calbiochem) (protein)
chain: SESQTLDKVYQMKSKPRGYCLIINNHNFAKAREKVPKLHSIRDRNGTHLDAGALTTTFEELHFEIKPHDDCTVEQIYEILKIYQLMDHSNMDCFICCILSHGDKGIIYGTDGQEAPIYELTSQFTGLKCPSLAGKPKVFFIQACQGDNYQKGIPVETDSEEQPYLEMDLSSPQTRYIPDEADFLLGMATVNNCVSYRNPAEGTWYIQSLCQSLRERCPRGDDILTILTEVNYEVSNKDDKKNMGKQMPQPTFTLRKKLVFPSD
in vitro cleavage of the biotin-labelled translation product by recombinant caspase (SDS-PAGE, Streptavidin-HRP) [1]: HA-tagged eIF5A1D6E and eIF5A1D6E/K50R are effectively cleaved in vitro by caspases 3, 7 and 8
in vitro cleavage of the biotin-labelled translation product by recombinant caspase (SDS-PAGE, Streptavidin-HRP) [2]: HA-tagged eIF5A1D6E and eIF5A1D6E/K50R are effectively cleaved in vitro by caspases 3, 7 and 8
in vitro cleavage of the biotin-labelled translation product by recombinant caspase (SDS-PAGE, Streptavidin-HRP) [3]: The wild-type eIF5A1 is cleaved by caspases 2, 3, 6, 7, 8, 9, and 10

B2: recombinant caspase 7 (Calbiochem) (protein)
chain: AKPDRSSFVPSLFSKKKKNVTMRSIKTTRDRVPTYQYNMNFEKLGKCIIINNKNFDKVTGMGVRNGTDKDAEALFKCFRSLGFDVIVYNDCSCAKMQDLLKKASEEDHTNAACFACILLSHGEENVIYGKDGVTPIKDLTAHFRGDRCKTLLEKPKLFFIQACRGTELDDGIQADSGPINDTDANPRYKIPVEADFLFAYSTVPGYYSWRSPGRGSWFVQALCSILEEHGKDLEIMQILTRVNDRVARHFESQSDDPHFHEKKQIPCVVSMLTKELYFSQ
in vitro cleavage of the biotin-labelled translation product by recombinant caspase (SDS-PAGE, Streptavidin-HRP) [3]: The wild-type eIF5A1 is cleaved by caspases 2, 3, 6, 7, 8, 9, and 10

B3: recombinant caspase 1 (Calbiochem) (protein)
chain: NPAMPTSSGSEGNVKLCSLEEAQRIWKQKSAEIYPIMDKSSRTRLALIICNEEFDSIPRRTGAEVDITGMTMLLQNLGYSVDVKKNLTASDMTTELEAFAHRPEHKTSDSTFLVFMSHGIREGICGKKHSEQVPDILQLNAIFNMLNTKNCPSLKDKPKVIIIQACRGDSPGVVWFKDSVGVSGNLSLPTTEEFEDDAIKKAHIEKDFIAFCSSTPDNVSWRHPTMGSVFIGRLIEHMQEYACSCDVEEIFRKVRFSFEQPDGRAQMPTTERVTLTRCFYLFPGH
in vitro cleavage of the biotin-labelled translation product by recombinant caspase (SDS-PAGE, Streptavidin-HRP) [3]: The wild-type eIF5A1 is cleaved by caspases 2, 3, 6, 7, 8, 9, and 10 but not by caspase 1

B4: recombinant caspase 6 (Calbiochem) (protein)
chain: AFYKREMFDPAEKYKMDHRRRGIALIFNHERFFWHLTLPERRGTCADRDNLTRRFSDLGFEVKCFNDLKAEELLLKIHEVSTVSHADADCFVCVFLSHGEGNHIYAYDAKIEIQTLTGLFKGDKCHSLVGKPKIFIIQACRGNQHDVPVIPLDVVDNQTEKLDTNITEVDAASVYTLPAGADFLMCYSVAEGYYSHRETVNGSWYIQDLCEMLGKYGSSLEFTELLTLVNRKVSQRRVDFCKDPSAIGKKQVPCFASMLTKKLHFFPKSN
in vitro cleavage of the biotin-labelled translation product by recombinant caspase (SDS-PAGE, Streptavidin-HRP) [3]: The wild-type eIF5A1 is cleaved by caspases 2, 3, 6, 7, 8, 9, and 10

B5: recombinant caspase 2 (Calbiochem) (protein)
chain: GPVCLQVKPCTPEFYQTHFQLAYRLQSRPRGLALVLSNVHFTGEKELEFRSGGDVDHSTLVTLFKLLGYDVHVLCDQTAQEMQEKLQNFAQLPAHRVTDSCIVALLSHGVEGAIYGVDGKLLQLQEVFQLFDNANCPSLQNKPKMFFIQACRGDETDRGVDQQDGKNHAGSPGCEESDAGKEKLPKMRLPTRSDMICGYACLKGTAAMRNTKRGSWYIEALAQVFSERACDMHVADMLVKVNALIKDREGYAPGTEFHRCKEMSEYCSTLCRHLYLFPGHPPT
in vitro cleavage of the biotin-labelled translation product by recombinant caspase (SDS-PAGE, Streptavidin-HRP) [3]: The wild-type eIF5A1 is cleaved by caspases 2, 3, 6, 7, 8, 9, and 10

B6: recombinant caspase 10 (Calbiochem) (protein)
chain: VKTFLEALPQESWQNKHAGSNGNRATNGAPSLVSRGMQGASANTLNSETSTKRAAVYRMNRNHRGLCVIVNNHSFTSLKDRQGTHKDAEILSHVFQWLGFTVHIHNNVTKVEMEMVLQKQKCNPAHADGDCFVFCILTHGRFGAVYSSDEALIPIREIMSHFTALQCPRLAEKPKLFFIQACQGEEIQPSVSIEADALNPEQAPTSLQDSIPAEADFLLGLATVPGYVSFRHVEEGSWYIQSLCNHLKKLVPRMLKFLEKTMEIRGRKRTVWGAKQISATSLPTAISAQTPRPPMRRWSSVS
in vitro cleavage of the biotin-labelled translation product by recombinant caspase (SDS-PAGE, Streptavidin-HRP) [1]: are not efficiently cleaved by caspases 9 and 10
in vitro cleavage of the biotin-labelled translation product by recombinant caspase (SDS-PAGE, Streptavidin-HRP) [2]: are not efficiently cleaved by caspases 9 and 10
in vitro cleavage of the biotin-labelled translation product by recombinant caspase (SDS-PAGE, Streptavidin-HRP) [3]: The wild-type eIF5A1 is cleaved by caspases 2, 3, 6, 7, 8, 9, and 10

B7: recombinant caspase 9 (Calbiochem) (protein)
chain: MDEADRRLLRRCRLRLVEELQVDQLWDALLSRELFRPHMIEDIQRAGSGSRRDQARQLIIDLETRGSQALPLFISCLEDTGQDMLASFLRTNRQAAKLSKPTLENLTPVVLRPEIRKPEVLRPETPRPVDIGSGGFGDVGALESLRGNADLAYILSMEPCGHCLIINNVNFCRESGLRTRTGSNIDCEKLRRRFSSLHFMVEVKGDLTAKKMVLALLELAQQDHGALDCCVVVILSHGCQASHLQFPGAVYGTDGCPVSVEKIVNIFNGTSCPSLGGKPKLFFIQACGGEQKDHGFEVASTSPEDESPGSNPEPDATPFQEGLRTFDQLDAISSLPTPSDIFVSYSTFPGFVSWRDPKSGSWYVETLDDIFEQWAHSEDLQSLLLRVANAVSVKGIYKQMPGCFNFLRKKLFFKTS
in vitro cleavage of the biotin-labelled translation product by recombinant caspase (SDS-PAGE, Streptavidin-HRP) [1]: are not efficiently cleaved by caspases 9 and 10
in vitro cleavage of the biotin-labelled translation product by recombinant caspase (SDS-PAGE, Streptavidin-HRP) [2]: are not efficiently cleaved by caspases 9 and 10
in vitro cleavage of the biotin-labelled translation product by recombinant caspase (SDS-PAGE, Streptavidin-HRP) [3]: The wild-type eIF5A1 is cleaved by caspases 2, 3, 6, 7, 8, 9, and 10

B8: recombinant caspase 3 (Calbiochem) (protein)
chain: SGISLDNSYKMDYPEMGLCIIINNKNFHKSTGMTSRSGTDVDAANLRETFRNLKYEVRNKNDLTREEIVELMRDVSKEDHSKRSSFVCVLLSHGEEGIIFGTNGPVDLKKITNFFRGDRCRSLTGKPKLFIIQACRGTELDCGIETDSGVDDDMACHKIPVEADFLYAYSTAPGYYSWRNSKDGSWFIQSLCAMLKQYADKLEFMHILTRVNRKVATEFESFSFDATFHAKKQIPCIVSMLTKELYFYH
in vitro cleavage of the biotin-labelled translation product by recombinant caspase (SDS-PAGE, Streptavidin-HRP) [3]: The wild-type eIF5A1 is cleaved by caspases 2, 3, 6, 7, 8, 9, and 10
